In publication PMC4278837, “A Cyclic Peptidic Serine Protease Inhibitor: Increasing Affinity by Increasing Peptide Flexibility” (PLoS ONE, 2014):
Bridge positions count the residues as written; N and C are the ends. Square brackets hold non-standard residues; d marks the D form. Ends that are not written are not given here. Ala(1-amidino-4-piperidyl) = N=C(N)N1CCC(C[C@H](N)C(=O)O)CC1; Phe(4-guanidino) = N=C(N)Nc1ccc(C[C@H](N)C(=O)O)cc1

B1: mupain-1-12 (peptide)
chain: CPAYS[Phe(4-guanidino)]YLDC
modifications: disulfide 1-10
B2: Mupain-1-16 D9A (peptide)
chain: CPAYS[Ala(1-amidino-4-piperidyl)]YLAC
modifications: disulfide 1-10; not fully specified
B3: mupain-1-16 (peptide)
chain: CPAYS[Ala(1-amidino-4-piperidyl)]YLDC
modifications: disulfide 1-10; not fully specified
B4: mupain-1 (peptide)
peptide: CPAYSRYLDC
modifications: disulfide 1-10 (inferred)
notes: Synthesised on a resin with Rink amide linker; source: synthetic peptide (solid-phase synthesis, HPLC purified)
B5: Mupain-1 D9A (peptide)
peptide: CPAYSRYLAC
modifications: disulfide 1-10 (inferred)
notes: mupain-1 with D9A; Rink amide linker resin; C-terminal amide surmised; source: synthetic peptide (solid-phase synthesis, HPLC purified)

biological target: recombinant catalytic domain of huPA-H99Y (residues 159-411) (human, UniProt P00749 179-431); experiment: ITC; MicroCal ITC200; peptide injected into 5-50 µM huPA-H99Y catalytic domain; 20 mM sodium phosphate pH 7.4, 140 mM NaCl, 25°C; one-binding-site model; conditions: both partners purified

Binder | Kd | dH | stoichiometry N
B1 | 400 nM | -10.5 kcal/mol | 0.85
B2 | 134 nM | -11.1 kcal/mol | 0.88
B3 | 380 nM | -7.93 kcal/mol | 0.87

biological target: T1, huPA-H99Y (full length human urokinase-type plasminogen activator with H99Y) (human); experiment: SPR; Biacore T200; uPA variant amine-coupled to a CM5 chip (about 500 RU); peptides injected in HBS with 0.1% BSA, 30 µL/min, 25°C, pH 7.4; 1:1 kinetic fit; KD = koff/kon; conditions: both partners purified

Binder | Kd | koff | kon
B1 | 1210 nM | 0.246 s⁻¹ | 206000 M⁻¹ s⁻¹
B2 | 71.8 nM | 0.0333 s⁻¹ | 465000 M⁻¹ s⁻¹
B3 | 844 nM | 0.0893 s⁻¹ | 107000 M⁻¹ s⁻¹

biological target: T2, murine urokinase-type plasminogen activator (muPA) wild type (murine, UniProt P06869 21-433); experiment: as above; conditions: both partners purified
T2 construct: cDNA encoding full length muPA; Two-chain form after plasmin; also called muPA wt; muPA-wt; source: HEK293 6E, transfected; treated with plasmin
T2 sequence (P06869 21-433): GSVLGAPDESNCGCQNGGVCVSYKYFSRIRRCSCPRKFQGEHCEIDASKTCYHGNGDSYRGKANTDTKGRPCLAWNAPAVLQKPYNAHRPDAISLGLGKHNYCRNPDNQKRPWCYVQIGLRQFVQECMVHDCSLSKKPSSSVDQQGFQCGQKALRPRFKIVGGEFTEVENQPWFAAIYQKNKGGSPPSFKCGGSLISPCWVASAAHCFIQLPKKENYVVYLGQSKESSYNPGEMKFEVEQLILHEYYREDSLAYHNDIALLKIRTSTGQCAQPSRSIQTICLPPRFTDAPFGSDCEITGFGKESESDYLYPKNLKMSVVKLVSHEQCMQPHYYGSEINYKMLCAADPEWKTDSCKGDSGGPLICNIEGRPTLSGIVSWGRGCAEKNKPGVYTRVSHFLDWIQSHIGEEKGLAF

Binder | Kd | koff | kon
B1 | 138 nM | 0.0192 s⁻¹ | 156000 M⁻¹ s⁻¹
B2 | 21.3 nM | 0.0122 s⁻¹ | 579000 M⁻¹ s⁻¹
B4 | 398 nM | 0.0364 s⁻¹ | 91400 M⁻¹ s⁻¹
B5 | 417 nM | 0.0401 s⁻¹ | 98500 M⁻¹ s⁻¹
B3 | 89.4 nM | 0.00671 s⁻¹ | 89800 M⁻¹ s⁻¹

biological target: T1, huPA-H99Y (full length human …); experiment: enzyme inhibition (steady state, chromogenic substrate S-2444); about 2 nM enzyme (purified or conditioned medium of transfected cells) pre-incubated 15 min with varied peptide in HBS (10 mM HEPES pH 7.4, 140 mM NaCl) with 0.1% BSA at 37°C; substrate about KM; fit for competitive inhibition; highest peptide concentration 400 µM; conditions: not given

Binder | Ki
B2 | 309 nM

biological target: huPA-H99Y-R35A (human); experiment: as above; conditions: not given

Binder | Ki
B1 | 3260 nM
B2 | 174 nM
B3 | 2500 nM

biological target: huPA-H99Y-V41A (human); experiment: as above; conditions: not given

Binder | Ki
B1 | 1600 nM
B2 | 480 nM
B3 | 1950 nM

biological target: huPA-H99Y-K143A (human); experiment: as above; conditions: not given

Binder | Ki
B1 | 2140 nM
B2 | 188 nM
B3 | 1130 nM

biological target: huPA-H99Y-Q192A (human); experiment: as above; conditions: not given

Binder | Ki
B1 | 2350 nM
B2 | 438 nM
B3 | 2710 nM

biological target: T2, murine urokinase-type plasminogen …; experiment: as above; conditions: not given

Binder | Ki
B2 | 76 nM

biological target: T3, muPA-K41A (murine); experiment: as above; conditions: not given
T3 construct: site directed mutant of full length muPA; numbers count on: chymotrypsin numbering; Two-chain form after plasmin; source: HEK293 6E, transfected; treated with plasmin

Binder | Ki
B1 | 1720 nM
B2 | 14 nM
B3 | 300 nM

biological target: T4, muPA-Y99A (murine); experiment: as above; conditions: not given
T4 construct: site directed mutant of full length muPA; numbers count on: chymotrypsin numbering; Two-chain form after plasmin; source: HEK293 6E, transfected; treated with plasmin

Binder | Ki
B1 | 5200 nM
B2 | 1360 nM
B3 | 1240 nM

biological target: T5, muPA-K143A (murine); experiment: as above; conditions: not given
T5 construct: site directed mutant of full length muPA; numbers count on: chymotrypsin numbering; Two-chain form after plasmin; source: HEK293 6E, transfected; treated with plasmin

Binder | Ki
B1 | 1000 nM
B2 | 100 nM
B3 | 130 nM

biological target: T6, muPA-S190A (murine); experiment: as above; conditions: not given
T6 construct: site directed mutant of full length muPA; numbers count on: chymotrypsin numbering; Two-chain form after plasmin; source: HEK293 6E, transfected; treated with plasmin

Binder | Ki
B1 | 2300 nM
B2 | 529 nM
B3 | 352 nM

biological target: T7, muPA-V213T (murine); experiment: as above; conditions: not given
T7 construct: site directed mutant of full length muPA; numbers count on: chymotrypsin numbering; Two-chain form after plasmin; source: HEK293 6E, transfected; treated with plasmin

Binder | Ki
B1 | 86 nM
B2 | 14 nM
B3 | 13 nM
